In patent publication US9624471B2, “Methods for maturing cardiomyocytes and uses thereof” (UNIVERSITY OF WASHINGTON THROUGH ITS CENTER FOR …, priority 2013, dated 2017):

Experiments:
let-7g OE CMs = experiment: Whole genome transcriptome profiling (ILLUMINA RNA sequencing) of let-7g OE CMs vs. EV control CMs; assay type: cell-based, human
Excerpt: To further understand the effects of let-7 OE during cardiomyocyte maturation at a molecular level, the inventors carried out whole genome transcriptome profiling of let-7g OE CMs and corresponding EV control CMs using an ILLUMINA™ RNA sequencing platform. […] Using expression values for the genes that belonged to the 12 pathways (FIG. 1E), the inventors carried out a 2D-PCA comparing let-7g OE CMs and EV control CMs with H7-CMs at day 20 and 1 yr, IMR90iPSC-CMs at 1 yr and 3 month old HFA and HFV samples. […] Further evidence of let-7g directed maturation was observed from known isoform changes accompanying cardiomyocyte maturation, such as shifts in myosin heavy chain (MYH6/MYH7)^29 (FIG. 13). […] Focusing on the 34 differentially spliced genes in common among H7-CM-1yr, let-7 OE and fetal samples (FIG. 4C), the inventors identified the single transcript of each showing the greatest absolute change in proportion between H7-CM day 20 and the above three samples (data not shown). […] The same pattern emerges from analysis of the relative expression levels of all 377 isoforms (data not shown) of these 34 genes again showing that the developmental chronology of the samples is well captured by principal component 1. In short, there are concerted and dynamic changes in splicing during maturation. The fact that both differential splicing and differential expression analyses cluster let-7 OE CMs with H71yr-CM and fetal samples, clearly strengthens the finding that let-7 is critical for maturation.
Total RNAs for HFA and HFV samples were extracted using RNAeasy mini kit (QIAGEN™)^7. Total RNAs for all other samples were extracted with MIRNEASY™ mini kit (QIAGEN™) and were further DNAse treated with DNA-free kit (AMBION™). RNA and Small RNA libraries were prepared independently using TRUSEQ™ library preparation kits (ILLUMINA™) following the manufacturer's protocols. […] Sequence data for miRNAs were analyzed using miRDeep2™ software^8. […] For mRNA sequencing analysis, mRNA reads from samples were mapped to hg19 reference genome using STAR version 2.3.010. BAM files produced by STAR were analyzed with Cufflinks version 2.1.1_11 run in de novo mode. […]
Gene and transcript abundance was estimated using Markov chain Monte Carlo to sample from a hierarchical Bayesian model. […] Under this model, estimates from transcripts with very low data are effectively shrunk towards each other to avoid spuriously highfold-change estimates that can occur when using simple read or fragment count estimates. Expression estimates, measured in transcripts per million (TPM), and adjusted using upper quantile normalization^12, were generated for the Ensembl 74 gene annotation database^13.
Separately, statistical significance of differential expression at the gene level was analyzed using DESeq^14. […]

HECT293FT cells = experiment: Lipofectamine transient transfection of plko-let-7g and plko-let-7g-E plasmids, mature let-7g and target expression after 24 hrs; assay type: cell-based; details: 24 hrs after transfection
Method: FIGS. 20A-20B Modified let-7g (let-7g-E) is more efficient in generating mature let-7g in HECT293FT cells. Let-7g and a modified version of let-7g (plko-let-7g-E) were induced in hect 293 FT cells by introducing plko-let-7g and plko-let-7g-E plasmids with lipofectamine transient transfection assay. 24 hrs after transfection, cells were tested for mature let-7g expression. […] (FIG. 20B) Targets of let-7 are repressed when we over-express let-7g-E similar to that seen during over-expression of let-7g.

B1: let-7g: human let-7 family miRNA, SEQ ID NO: 9, overexpressed from pLKO lentiviral pri-miR-let-7g construct (nucleic acid, listed as Homo sapiens)
chain: AGGCUGAGGUAGUAGUUUGUACAGUUUGAGGGUCUAUGAUACCACCCGGUACAGGAGAUAACUGUACAGGCCACUGCCUUGCCA
How did the “maturation markers RYR2, MYH7, KCNJ2 expression” value (let-7g OE CMs; RNA sequencing, compared to EV control) turn out when B1 was run?
Its value is “increased expression”.

And the “FA metabolism (gene expression, density plots)” value (let-7g OE CMs; in comparison to EV control)?
The value was “significantly up-regulated”.

And the “PI3/AKT/Insulin signaling (gene expression, density plots)” value (let-7g OE CMs; in comparison to EV control)?
Its value is “significantly down-regulated”.

And the “position in dimension 1 of 2D-PCA (genes of 12 pathways)” value (let-7g OE CMs; vs. H7-CMs day 20 and 1 yr, EV control)?
Its value is “closer to 1 yr than the EV and day 20 CMs”.

What about the “Targets of let-7 expression” value (HECT293FT cells) of the same molecule?
The value was “repressed”.
